Patent US20260183408A1, “POLYPEPTIDE AND USE THEREOF” (SHENZHEN CHENYANG BIOLOGICAL TECHNOLOGY CO., LTD, priority 2022, published 2026)
Ends that are not written are not given here.

Biological target: T1, 5-HT2CR (Mus musculus, UniProt P34968)
T1 construct: The dissolved mouse hippocampal tissue extract (with 500 μg protein); from tissue; host or cells: mouse hippocampus
T1 sequence (P34968 33-459): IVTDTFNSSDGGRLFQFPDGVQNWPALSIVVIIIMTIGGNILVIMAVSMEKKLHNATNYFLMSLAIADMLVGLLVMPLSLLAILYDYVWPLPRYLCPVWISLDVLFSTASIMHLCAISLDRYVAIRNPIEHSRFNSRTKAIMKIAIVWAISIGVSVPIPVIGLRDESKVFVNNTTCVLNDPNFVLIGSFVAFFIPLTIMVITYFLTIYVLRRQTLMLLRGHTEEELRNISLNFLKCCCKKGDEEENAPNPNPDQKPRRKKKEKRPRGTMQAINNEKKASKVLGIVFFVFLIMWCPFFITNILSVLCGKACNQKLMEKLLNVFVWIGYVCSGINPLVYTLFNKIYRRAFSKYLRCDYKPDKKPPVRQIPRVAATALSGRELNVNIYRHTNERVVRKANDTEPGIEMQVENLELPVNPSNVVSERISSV
Experiment: GST pulldown assay for mouse hippocampal tissue with D2R fragments
Assay type: binding
Conditions: GST fusion protein of the D2R region, mouse hippocampal tissue extract, Western blotting (FIG. 4)
Excerpt: In order to identify the binding site of the D2R/5-HT2CR complex, full-length D2R cDNA clone (Genbank Accession No. X51645) was first amplified to obtain the cDNA fragments of the CT region of D2R (D2R-CT, T428-C443) and the third intracellular loop (IL3) region of D2R (D2R-IL3, K211-Q373). These fragments were subcloned into the BamH1/EcoR1 or BamH1/Xho1 site of pGEX-4T-3 plasmids (YouBio no: VT1255). The initiation methionine residue and the termination codon were incorporated when appropriate. All constructs were resequenced to confirm that the splicing fusion was properly achieved. E. coli BL21 viable cells (KangTi Life Technology, no: KTSM104L) were used for expression, and purification was performed to obtain the GST fusion protein containing the IL3 region of D2R (GST-D2R-IL3) and the GST fusion protein containing the CT region of D2R (GST-D2R-CT) from the bacterial lysates.
The dissolved mouse hippocampal tissue extract (with 500 μg protein) was diluted with 1×PBS/1% Triton X-100 and subsequently incubated with 20 μl of protein-GST-resin saturated with only GST protein or 15 μg of the GST fusion protein described above overnight at 4° C. Beads were washed with 1×PBS/1% Triton X-100 for 1-8 times. The bound proteins were eluted with SDS-PAGE Protein Loading Buffer (YeSen, no: 20315ES05), separated with SDS-PAGE, and subjected to Western blotting with their respective antibodies. Results were as shown in panel A of FIG. 4.
According to the method in this Example, pulldown analysis was performed using the GST fusion protein containing the KVC region of D2R (GST-D2R-KVC), the GST fusion protein containing the ES region of D2R (GST-D2R-ES), and the GST fusion protein containing the PQ region of D2R (GST-D2R-PQ), and the Western blotting results were shown in panel B of FIG. 4. […]

KVC region of D2R: GST fusion protein containing the KVC (K211-V270) region of D2R (KIYIVLRRRRKRVNTKRSSRAFRAHLRAPLKGNCTHPEDMKLCTVIMKSNGSFPVNRRRV; cysteine pairing not given here; also: GST fusion protein)
pull down of 5-HT2CR: could pull down the 5-HT2CR

KL polypeptide: K226-L240 region of D2R, SEQ ID NO: 1; tested in the pulldown as GST fusion protein GST-D2R-KL (KRSSRAFRAHLRAPL)
pull down of 5-HT2CR: could associate with 5-HT2CR

B1: IL3 region of D2R: GST fusion protein containing the third intracellular loop (IL3) region of D2R, K211-Q373 (protein)
chain: KIYIVLRRRRKRVNTKRSSRAFRAHLRAPLKGNCTHPEDMKLCTVIMKSNGSFPVNRRRVEAARRAQELEMEMLSSTSPPERTRYSPIPPSHHQLTLPDPSHHGLHSTPDSPAKPEKNGHAKDHPKIAKIFEIQTMPNGKTRTSLKTMSRRKLSQQKEKKATQ
modifications: left off: a dimerising Fc or GST; large carriers; small tags and cut ends
notes: GST fusion protein containing the third intracellular loop (IL3) region of D2R, K211-Q373
pull down of 5-HT2CR: could pull down the 5-HT2CR
